Target: Cupid B-PTEN peptide

B1: PTEN protein of Dictyostelium (protein)
chain: MSNLLRVAVSKQKRRYQKNGYDLDLAYITDNIVAMGFPSEKVEGVFRNPMKDVQRFLDQYHKDHFKVYNLCSERVYDHSKFYGRVGYYPFDDHNAPQFEMIDAFCRDVDAWMKEDSKNIAVIHCKAGKGRTGLMICCWLMYCGMWKNTEDSLRFYAALRTYNQKGVTIPSQIRYVGYFGRSIRESIKYVPRNVTLKKIVLRPLPKEINLSEVQFNISVGKNCVFNSKEHNMNVVISKKKKTVVDKNKKDPKKKLTKENSEKNIDSQQQQQSQSSLSQSQQGQSSPNMQSLSASGTISSGSNVGTVNGNTLHQLGGSQFSLSDLADGNTIGNDEYISFEIGALSLAGDIRIEFTNKQDDRMFMFWVNTSFVQQLEIIPKSGLDKAHKDKNHKAFPEDFHVELTFDQLDQQQSHTTVVASAEEQTNNQHYPQSSNNVATSSSHHDNITVVASDAPQNNNNNNNLNSSNSNNATTTTTKNNISLASSQSNPVQQESNPSTTTQVSEENSAPKVEAEKIENSNASANDSETSSNSSS
  phosphorylation response of proteins to cyclic AMP (antibody detection on SDS gels): they exhibited a much stronger initial phosphorylation response to cyclic AMP
